Measurements: PMC4655838, “Versatility in phospho-dependent molecular recognition of the XRCC1 and XRCC4 DNA-damage scaffolds by aprataxin-family FHA domains” (DNA Repair, 2015)
Each block holds one binder with its values, some of them ahead of it. Square brackets hold non-standard residues; d marks the D form. Ends that are not written are not given here. pT = C[C@@H](OP(=O)(O)O)[C@H](N)C(=O)O; pS = N[C@@H](COP(=O)(O)O)C(=O)O

Key:
[1] = target: T1, APLF FHA domain (residues 1-106) (UniProt Q8IW19 1-106); experiment: ITC; peptide injected (30 x 10 ul) into FHA domain in the cell; 22 °C; 50 mM HEPES pH 7.5, 150 mM NaCl, 5 mM β-mercaptoethanol; XRCC1 peptides 1 mM into 100 μM protein, XRCC4 peptides 300 μM into 30 μM protein; single-site binding model; conditions: both partners purified
T1 construct: Cloned BamHI/XhoI in pGEX-6P-1; also called aprataxin- and PNKP-like factor FHA domain; source: E. coli Rosetta2 (DE3), purified (glutathione resin, cleaved with rhinovirus 3C protease, Superdex 75); not shown: GST, N-terminal, cleaved
T1 sequence (looked up): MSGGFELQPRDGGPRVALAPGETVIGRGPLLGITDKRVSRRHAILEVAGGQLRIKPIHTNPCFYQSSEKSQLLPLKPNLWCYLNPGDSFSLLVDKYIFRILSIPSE

[2] = target: T2, selenomethionine-labelled APLF FHA domain L91M (residues 1-106) (UniProt Q8IW19 1-106, L91 M, selenomethionine-labelled); experiment: crystal structure; selenomethionine-labelled APLF FHA L91M with peptide at 1:3; hanging drops at 18 °C, 0.1 M Tris pH 8.0, 30% PEG 3350, 0.2 M MgCl2; SAD, refined at 1.4 Å; conditions: both partners purified
T2 construct: residues 1-104 are in the final model; also called APLF L91 M; APLF/XRCC4 SeMet; source: E. coli Rosetta2 (DE3) in SelenoMet medium, purified as the wild-type protein; not shown: GST, N-terminal, cleaved
T2 sequence (looked up): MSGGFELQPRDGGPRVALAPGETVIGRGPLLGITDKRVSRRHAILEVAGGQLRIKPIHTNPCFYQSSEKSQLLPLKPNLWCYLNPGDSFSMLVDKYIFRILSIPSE

fold tighter binding than the XRCC1 pThr519 peptide [1]: ~8 fold
B1: XRCC4 229-237 peptide phosphorylated on Thr233 (peptide)
peptide: YDESTDEES
HELM: PEPTIDE1{Y.D.E.S.[C[C@@H](OP(=O)(O)O)[C@H](N[*:1])C(=O)[*:2]].D.E.E.S.[am]}$$$$V2.0; N-terminus assumed
SMILES: C[C@@H](OP(=O)(O)O)[C@H](NC(=O)[C@H](CO)NC(=O)[C@H](CCC(=O)O)NC(=O)[C@H](CC(=O)O)NC(=O)[C@@H](N)Cc1ccc(O)cc1)C(=O)N[C@@H](CC(=O)O)C(=O)N[C@@H](CCC(=O)O)C(=O)N[C@@H](CCC(=O)O)C(=O)N[C@@H](CO)C(N)=O
notes: also called mono-phosphorylated (pT233) XRCC4; XRCC4 peptide phosphorylated solely on the threonine in the core motif; source: synthetic peptide (Dr. W. Mawby, University of Bristol), purified by HPLC

stoichiometry N [1]: ~2 APLF FHA domains per peptide
B2: XRCC1 515-529 peptide phosphorylated on Ser518, Thr519, Thr523 and Ser525 (peptide)
peptide: YAG[pS][pT]DEN[pT]D[pS]EEHQ-NH2
modifications: N-terminus assumed
SMILES: C[C@H](NC(=O)[C@@H](N)Cc1ccc(O)cc1)C(=O)NCC(=O)N[C@@H](COP(=O)(O)O)C(=O)N[C@H](C(=O)N[C@@H](CC(=O)O)C(=O)N[C@@H](CCC(=O)O)C(=O)N[C@@H](CC(N)=O)C(=O)N[C@H](C(=O)N[C@@H](CC(=O)O)C(=O)N[C@@H](COP(=O)(O)O)C(=O)N[C@@H](CCC(=O)O)C(=O)N[C@@H](CCC(=O)O)C(=O)N[C@@H](Cc1c[nH]cn1)C(=O)N[C@@H](CCC(N)=O)C(N)=O)[C@@H](C)OP(=O)(O)O)[C@@H](C)OP(=O)(O)O
notes: XRCC1 residues 515-529; also called tetra-phosphorylated XRCC1 peptide; source: synthetic peptide (Dr. W. Mawby, University of Bristol), purified by HPLC

binding result [2]: binds
B5: XRCC4 229-237 peptide phosphorylated on Ser232, Thr233 and Ser237 (peptide)
peptide: YDE[pS][pT]DEE[pS]-NH2
modifications: N-terminus assumed
SMILES: C[C@@H](OP(=O)(O)O)[C@H](NC(=O)[C@H](COP(=O)(O)O)NC(=O)[C@H](CCC(=O)O)NC(=O)[C@H](CC(=O)O)NC(=O)[C@@H](N)Cc1ccc(O)cc1)C(=O)N[C@@H](CC(=O)O)C(=O)N[C@@H](CCC(=O)O)C(=O)N[C@@H](CCC(=O)O)C(=O)N[C@@H](COP(=O)(O)O)C(N)=O
notes: also called tri-phosphorylated XRCC4 peptide; triphosphorylated XRCC4; source: synthetic peptide (Dr. W. Mawby, University of Bristol), purified by HPLC

Second part, the binder before the results:

B3: XRCC1 515-529 peptide phosphorylated on Ser518, Thr519 and Thr523 (peptide)
peptide: YAG[pS][pT]DEN[pT]DSEEHQ-NH2
modifications: N-terminus assumed
SMILES: C[C@H](NC(=O)[C@@H](N)Cc1ccc(O)cc1)C(=O)NCC(=O)N[C@@H](COP(=O)(O)O)C(=O)N[C@H](C(=O)N[C@@H](CC(=O)O)C(=O)N[C@@H](CCC(=O)O)C(=O)N[C@@H](CC(N)=O)C(=O)N[C@H](C(=O)N[C@@H](CC(=O)O)C(=O)N[C@@H](CO)C(=O)N[C@@H](CCC(=O)O)C(=O)N[C@@H](CCC(=O)O)C(=O)N[C@@H](Cc1c[nH]cn1)C(=O)N[C@@H](CCC(N)=O)C(N)=O)[C@@H](C)OP(=O)(O)O)[C@@H](C)OP(=O)(O)O
notes: XRCC1 residues 515-529; also called YAGpSpTDENpTDSEEHQ; tri-phosphorylated XRCC1 peptide; source: synthetic peptide (Dr. W. Mawby, University of Bristol), purified by HPLC
fold weaker binding than the triphosphorylated XRCC4 peptide [1]: 26 fold
stoichiometry N [1]: ~2 APLF FHA domains per peptide

B4: XRCC1 515-529 peptide phosphorylated on Ser518 and Thr519 (peptide)
peptide: YAGSTDENTDSEEHQ
HELM: PEPTIDE1{Y.A.G.[O=C([C@H](COP(=O)(O)O)N[*:1])[*:2]].[C[C@@H](OP(=O)(O)O)[C@H](N[*:1])C(=O)[*:2]].D.E.N.T.D.S.E.E.H.Q.[am]}$$$$V2.0; N-terminus assumed
SMILES: C[C@H](NC(=O)[C@@H](N)Cc1ccc(O)cc1)C(=O)NCC(=O)N[C@@H](COP(=O)(O)O)C(=O)N[C@H](C(=O)N[C@@H](CC(=O)O)C(=O)N[C@@H](CCC(=O)O)C(=O)N[C@@H](CC(N)=O)C(=O)N[C@H](C(=O)N[C@@H](CC(=O)O)C(=O)N[C@@H](CO)C(=O)N[C@@H](CCC(=O)O)C(=O)N[C@@H](CCC(=O)O)C(=O)N[C@@H](Cc1c[nH]cn1)C(=O)N[C@@H](CCC(N)=O)C(N)=O)[C@@H](C)O)[C@@H](C)OP(=O)(O)O
notes: XRCC1 residues 515-529; also called di-phosphorylated XRCC1 peptide; source: synthetic peptide (Dr. W. Mawby, University of Bristol), purified by HPLC
fold increase in binding over the mono-phosphorylated peptide [1]: ~3 fold
